In article PMC11723585:

Target: endogenous knock-in V5-Halo-RXRα (human (endogenous in U2OS)) (UniProt P19793)
Sequence of UniProt P19793 (P19793 whole entry): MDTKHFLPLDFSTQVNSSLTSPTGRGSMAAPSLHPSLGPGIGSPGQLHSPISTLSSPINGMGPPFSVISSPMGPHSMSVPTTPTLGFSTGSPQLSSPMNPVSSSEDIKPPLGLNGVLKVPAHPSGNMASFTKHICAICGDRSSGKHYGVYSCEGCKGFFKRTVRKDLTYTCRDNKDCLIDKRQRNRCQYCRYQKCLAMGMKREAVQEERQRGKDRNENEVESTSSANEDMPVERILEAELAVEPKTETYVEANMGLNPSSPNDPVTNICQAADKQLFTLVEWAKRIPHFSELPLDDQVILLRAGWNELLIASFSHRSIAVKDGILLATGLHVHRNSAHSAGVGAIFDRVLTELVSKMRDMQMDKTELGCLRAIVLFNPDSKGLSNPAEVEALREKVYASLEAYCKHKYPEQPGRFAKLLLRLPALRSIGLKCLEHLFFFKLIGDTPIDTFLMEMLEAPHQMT

RARα^RR-SNAPf-3xFLAG (from UniProt P10276 1-462) (natural protein)
chromatin-bound fraction of DR trajectories (f bound,DR) of RARα^RR-SNAP in Halo-RXRα knock-in U2OS cells: 7.5%
chromatin-bound fraction of PAPA trajectories (f bound,PAPA) of RARα^RR-SNAP in Halo-RXRα knock-in U2OS cells: 11.1%
